In paper PMC6443809, “Integrin activation by the lipid molecule 25-hydroxycholesterol induces a proinflammatory response” (Nature Communications, 2019):
pKd: −log10 of the molar value.

Legend:
IGF1 (Homo sapiens) = IGF1 (Homo sapiens) (UniProt P05019); experiment: SPR; conditions: cited from earlier work
[1] = molecular target: phospholipase A2 (Homo sapiens) (UniProt P14555); experiment: SPR; conditions: cited from earlier work
[2] = molecular target: vitronectin (Homo sapiens) (UniProt P04004); experiment: SPR; conditions: cited from earlier work
αvβ3 integrin = molecular target: T1, αvβ3 integrin (Homo sapiens, UniProt P05106+P06756); experiment: SPR (Biacore […], immobilized αvβ[…]); also 3H-25HC binding with fractalkine-CD competition and biotin-25HC pull-down
T1 construct: gene ITGAV; Purified human αvβ3 integrin protein; with integrin αv subunit (ITGAV)

[3] = molecular target: purified human αvβ3 integrin protein (human) (UniProt P06756); experiment: radioligand binding; modified ELISA-type competitive assay: αvβ3 integrin coated on 96-well plate (200 ng/well in PBS with 1 mM MnCl2, 16 h, 4 °C); fractalkine-CD (1000 ng/well in HEPES-Tyrodes buffer) or water added 2 h at room temperature, washed; then 3H-25HC in PBS/0.5% BSA 16 h at 4 °C; bound radioactivity counted
[4] = molecular target: collagen-I (Homo sapiens) (UniProt P02452); experiment: SPR; conditions: cited from earlier work

## αvβ3 integrin (from UniProt P06756)
IGF1 (Homo sapiens)
  pKd: 7.51
[1]
  pKd: 6.68
[2]
  pKd: 7.19

## C[C@H](CCCC(C)(C)O)[C@H]1CC[C@H]2[C@@H]3CC=C4C[C@@H](O)CC[C@]4(C)[C@H]3CC[C@]12C [25HC, 25-hydroxycholesterol]
αvβ3 integrin
  pKd: 7.96

## purified chemokine domain (CD) of recombinant human fractalkine protein (from UniProt P78423 25-397) (domain or fragment)
[3]
  loss of 3H-25HC binding to immobilised αvβ3 integrin after pre-incubation with fractalkine-CD: > 60%

## α1β1 integrin (from UniProt P56199)
[4]
  pKd: 7.62
